B1: Hu2B5.7: humanized 2B5-8.0; VH SEQ ID NO 72, VL SEQ ID NO 73 (antibody, V domains shown)
VH: EVQLVQSGAEVKKPGASVKVSCKASGYTFTKYWLGWVRQAPGQGLEWMGDIYPGYDYTHYNEKFKDRVTLTTDTSTSTAYMELRSLRSDDTAVYYCARSDGSSTYWGQGTLVTVSS
VL: DVLMTQTPLSLPVTPGEPASISCTSSQNIVHSNGNTYLEWYLQKPGQSPQLLIYKVSNRFSGVPDRFSGSGSGTDFTLKISRVEAEDVGVYYCFQVSHVPYTFGGGTKVEIKR

Assays:
[1] = tested on: carrageenan-induced paw edema; assay: Carrageenan-induced footpad edema model; format: in vivo, C57.BL/6 mice; conditions: 3 mg/kg, p.o.
Description: Carrageenan-Induced Footpad Edema is an acute rodent model of innate immune function. The in vivo efficacy of mouse anti-PGE2 antibody 2B5-8.0 is assessed in a carragenan-induced paw edema model. The induction of paw inflammation with carrageenan is performed similarly as previously described (Joseph P. Portanova, et al. J. Exp. Med. 184: 883-891 (1996)). Intradermal (ID) injection of an inflammatory agent causes a rapid influx of neutrophils and fluid edema which peaks at approximately 4 hours, followed by an influx of macrophages and monocytes which peaks at approximately 48 hours. C57.BL/6 mice (8-10-week-old, Jackson Laboratories, Bar Harbor, Me.) were injected ID in the rear footpad with 30 μL of either PBS (left) or λ-carrageenen (Sigma Aldrich, St. Louis, Mo.) in PBS (right) at a concentration of 5.0 mg/mL (150 μg/mouse). Rear footpad thickness was measured by Dyer spring caliper model #310-119 at baseline (time=0), and 4 hours post carrageenan challenge. Significant difference for paw thickness was determined by comparing mean paw swelling for each treatment group to vehicle in a Student's two-tailed t-test. Mice were given a dose titration of an anti-PGE2 antibody (2B5-8.0) intraperitonially (IP) 18 hours prior to carrageenan challenge, or Indomethacin, PO 2 hours prior to challenge. The endpoint measured was the difference in paw swelling (edema) between right and left paws 4 hours after treatment.

[2] = Biotin-PGE2 ELISA (PGE2-biotinamide binding to captured IgG)
[3] = Capillary zone electrophoresis; format: physicochemical; conditions: running buffer pH 5.5; compared with Hu2B5.2, Hu2B5.4, Hu2B5.6, Hu2B5.8
Description: Capillary zone electrophoresis is a capillary electrophoresis method in which the capillary is filled with buffer and the separation mechanism is based on differences in electrophoretic mobility of the analyte through the buffer. The electrophoretic mobility of a molecule is related to the charge-to-size ratio. A Beckman-Coulter ProteomeLab PA 800 (Beckman Coulter, Fullerton, Calif.) was used for the CZE analysis. A neutral capillary (eCAP neutral, 56 cm total length, 50 μm I. D. Beckman-Coulter, P/N 477441, Fullerton, Calif.) was used. The method used a 30.2 cm capillary with a detection window 20.2 cm from the sample introduction inlet. The running buffer was 100 mM EACA (6-Aminocaproic acid, Sigma A7824-100 G, St. Louis, Mo.) with 0.1% MC (from 1% Methylcellulose solution, Convergent Bioscience, cat# 101876, Toronto, ON, Canada), pH 5.5.

[4] = ^3H-PGE2 competition ELISA (prostaglandin selectivity); format: binding
Description: Alternatively, prostaglandin selectivity was determined using a ^3H-PGE2 competition ELISA. Plates were coated with 50 μL/well of 5 μg/ml of goat anti-human IgG (Fc) (Thermo Scientific # 31170, Hudson, N.H.) or goat anti-mouse IgG (Fc) (Thermo Scientific # 31125, Hudson, N.H.) in PBS and incubated overnight at 4° C. The following day plates were flicked and blotted dry. Plates were blocked with 200 μL/well of Superblock (Thermo Scientific # 37515, Hudson, N.H.), 1 hour at room temperature. Plates were flicked and blotted dry. Monoclonal antibodies were diluted to 0.04 μg/ml in PBST (Abbott Bioresearch Center, Worcester, Mass.)/10% Superblock and 50 μL of each was added to each well (2 ng/well) of the pre-blocked ELISA plate and incubated for 1 hour at room temperature. Wells were washed 3 times with PBS/0.1% Tween-20. ^3H-PGE2 (Perkin Elmer # NET-428, Waltham, Mass.) was diluted in PBST/10% Superblock to 6 nM (2× stock). Each prostaglandin (Cayman Chemicals, Ann Arbor, Mich.) was prepared in PBST+10% Superblock at various concentrations ranging from 2000 μM (2× stock) to 0.00004 μM (2×). Equal volumes of the ^3H-PGE2 solution and of each prostaglandin dilution were mixed. Fifty microliters of this mixture was then added to each well of the plate and incubated for 1 hour at room temperature. Wells were washed manually 6 times with PBST/10% Superblock and 50 μL of scintillation fluid (Perkin Elmer # 6013621, Waltham, Mass.) added to each well. Plates were read using a TopCount reader (Perkin Elmer, Waltham, Mass.) with a 5 minute count delay. IC50 number was determined using GraphPad Prism 5 (GraphPad Software, La Jolla, Calif.). The cross reactivity index was then calculated by IC50 of PGE2/IC50 of other prostaglandin(s)

[5] = tested on: PGE2 induced Ca++ influx in HEK293 Gα16 cells stably transfected with human EP4 receptor; assay: EP4 bioassay: PGE2 induced Ca++ flux (FLIPR); format: cell-based; conditions: PGE2 25 pm; read-out: IC50 (pM) @ PGE2 25 pm Cellular Potency in EP4 assay
Description: The ability of anti-PGE2 antibody to inhibit cellular response of PGE2 in vitro was determined in a Ca^++ flux assay in HEK293 Gα16 cells (Abbott Bioresearch Center, Worcester, Mass.) stably transfected with human EP4 receptor. In brief, an expression plasmid encoding one of the four human PGE2 receptors, EP4, and an expression plasmid encoding Gα16, were co-transfected into human embryonic kidney cell line 293 cells (ATCC# CRL1573, Manassas, Va.). The stable clones co-expressing both human EP4 and Gα16 protein were selected using standard methods (Joseph Sambrook and David W. Russell. Molecular Cloning: A Laboratory Manual Publisher. Published by Cold Spring Harbor Laboratory Press, 2001) and used for the EP4 bioassay. The HEK293 Gα16 cells were plated in black/clear poly-D-lysine plates (Corning #3667, Corning, N.Y.) and incubated with a Ca^++-sensitive dye (Molecular Devices, Sunnyvale, Calif.) for 90 minutes. Stock PGE2 (in 200 proof ethanol) was diluted with FLIPR buffer [containing 1×HBSS (Invitrogen Carlsbad, Calif.), 20 mM HEPES (Invitrogen Carlsbad, Calif.), 0.1% BSA (Sigma, St. Louis, Mo.) and 2.5 mM Probenecid (Sigma, St. Louis, Mo.)]. Anti-PGE2 antibodies or isotype matched control antibodies were also pre-diluted in FLIPR buffer. 25 μl of PGE2 or pre-incubated PGE2/antibody mixture was added to the wells pre-plated with cells. The dose response of PGE2 was determined on a serial titration of PGE2 and using FLIPR1 or Tetra (Molecular Devices, Sunnyvale, Calif.) and EC50 was determined using GraphPad Prism 5 (GraphPad Software, La Jolla, Calif.). […] Ca^++ flux was monitored using FLIPR1 and data was analyzed using GraphPad Prism 5 (GraphPad Software, La Jolla, Calif.).

[6] = Pharmacokinetics of hu2B5.7 and hu2B5.4 in Sprague-Dawley rats; format: in vivo; conditions: male Sprague-Dawley rats, IV 4 mg/kg
Description: Pharmacokinetic parameters were calculated by non-compartmental analysis using WinNonlin.
MSD streptavidin plates (Meso Scale Discovery) were washed with phosphate buffered saline containing 0.05% Tween-20 (diluted from 10×PBS, Abbott Bioresearch Center, Media Room, Worcester, Mass. and Tween-20, Sigma, St. Louis, Mo.). Plates were blocked with 250 μL/well blocking solution (MSD Block, Meso Scale Discovery, diluted to 3% final concentration in PBS) for 1 hour, covered, with shaking (600 rpm) at room temperature. After washing, 70 μL of biotinylated PGE2 (Prostoglandin E2-biotinamide, Cayman Chemical, Ann Arbor, Mich., cat# 10006987, lot# 190831-191028; 0.01 ug/mL in assay buffer) was added to each well. The plates were covered and incubated with shaking (600 rpm) for 1 hour at room temperature.
Prior to analysis, rat serum samples were thawed on ice, mixed gently, and centrifuged at 14,000 rpm for 3 minutes at 4° C. in an eppendorf centrifuge. Standard curve and control samples were prepared in rat serum. Tecan Evo automated liquid handling station was used to dilute standard curve, high, medium, and low controls, and serum samples in assay buffer, keeping 1% final serum concentration constant. MSD plates were washed again and study samples, standard curve samples and blanks, as well as high, medium, and low controls were added (70 μL/well). The plates were covered, and incubated for 1 hour with shaking (600 rpm) at room temperature.
After incubation, the MSD plates were washed, and 70 μL sulfo-tagged goat anti-human IgG (Meso Scale Discovery; diluted to 1 ug/mL in assay buffer) was added to each well. The MSD plates were covered, and incubated with shaking (600 rpm) for 1 hour at room temperature, then the plates were washed and developed with 2× Read Buffer (Meso Scale Discovery). Chemilumeniscence was measured within ten minutes on the MSD Sector Imager 6000.
Standard curves were analyzed using four-parameter logistic fit and sample concentrations were calculated by XLfit4 software version 2.2.1 Build 16, ([…].). Pharmacokinetic parameters were calculated for each animal using Winonlin software version 5.0.1 (Pharsight Corporation, Mountain View, Calif.) by noncompartmental analysis.
Surgically altered jugular vein cannulated, JVC) male Sprague-Dawley Rats (approximately seven weeks old, weighing 240-390 grams) were purchased from Charles River Laboratories (Wilmington, Mass.). The animals were housed in rooms maintained at constant temperature and humidity under a 12 hour light/dark cycle, fed with normal rodent chow and were allowed food and water ad libitum. Hydration and clinical conditions of the animals were monitored daily.
0.2 mL blood samples were collected from the rats at various timepoints, allowed to clot for 30 minutes at room temperature, centrifuged for 3 minutes at 13,200 rpm, the serum transferred to eppendorf tubes and stored frozen at −80° C.

Molecule | Δ Paw Swelling (mm) ([1]; 2 hours prior to challenge, 4 hours post challenge) | % Inhibition ([1]; paw swelling 4 hours post challenge) | EC50 [2] | migration in capillary zone electrophoresis [3] | prostaglandin binding specificity in ^3H-PGE2 competition ELISA [4] | IC50 [5] | AUC0-∞ [6] | CL [6] | MRT [6] | T½ [6] | Vss [6] | Vz [6]
COc1ccc2c(c1)c(CC(=O)O)c(C)n2C(=O)c1ccc(Cl)cc1 [Indomethacin, reference compound] | 0.486 ± 0.03 mm | 57 ± 3.5% | – | – | – | – | – | – | – | – | – | –
B1 | – | – | 79 pM | migrated more basic | demonstrated specificity to PGE2 | 78 pM | 9900 ± 1800 µg·h/mL | 9.84 ± 1.7 mL/day/kg | 16.8 ± 1.0 days | 12.4 days | 0.165 ± 0.0198 L/kg | 0.176 ± 0.0308 L/kg
